The source of these data is paper PMC5678105.

What all share (test): EMSA
In general terms: Mobility shift assays separate free from complexed probe on a gel.

The test system of data set [1] is TALE_2c_26 (3) (Xanthomonas axonopodis scaffold (designed TALE)). As to conditions: 5mC at strand 1 nt 24 (site position 13, T = 0); EMSA: 20 mM Tris pH 8, 50 mM NaCl, 5 mM MgCl2, 5% glycerol; 0.1 pmol TALE + 0.5 pmol duplex in 10 uL; RT 30 min then ice 30 min; gel 0.5x TAE 4 C; GFP readout.
Data set [2] has as its system TALE_2c_26 (23) (Xanthomonas axonopodis scaffold (designed TALE)). As to conditions: 5mC at strand 1 nt 24 (site position 13, T = 0); EMSA: 20 mM Tris pH 8, 50 mM NaCl, 5 mM MgCl2, 5% glycerol; 0.1 pmol TALE + 0.5 pmol duplex in 10 uL; RT 30 min then ice 30 min; gel 0.5x TAE 4 C; GFP readout.
Data set [3] has as its system TALE_9a_26 (5*) (Xanthomonas axonopodis scaffold (designed TALE)). As to conditions: 5mC at strand 1 nt 16 (site position 5, T = 0); EMSA: 20 mM Tris pH 8, 50 mM NaCl, 5 mM MgCl2, 5% glycerol; 0.1 pmol TALE + 0.5 pmol duplex in 10 uL; RT 30 min then ice 30 min; gel 0.5x TAE 4 C; GFP readout.
The subject of data set [4] is TALE_9a_26 R236A (Xanthomonas axonopodis scaffold (designed TALE)). As to conditions: 5mC at strand 1 nt 16 (site position 5, T = 0); EMSA: 20 mM Tris pH 8, 50 mM NaCl, 5 mM MgCl2, 5% glycerol; 0.1 pmol TALE + 0.5 pmol duplex in 10 uL; RT 30 min then ice 30 min; gel 0.5x TAE 4 C; GFP readout.
Data set [5] has as its system TALE_9a_26 (3) (Xanthomonas axonopodis scaffold (designed TALE)). Conditions: 5mC at strand 1 nt 16 (site position 5, T = 0); EMSA: 20 mM Tris pH 8, 50 mM NaCl, 5 mM MgCl2, 5% glycerol; 0.1 pmol TALE + 0.5 pmol duplex in 10 uL; RT 30 min then ice 30 min; gel 0.5x TAE 4 C; GFP readout.
The subject of data set [6] is TALE_9a_26 R266A (Xanthomonas axonopodis scaffold (designed TALE)). As to conditions: 5mC at strand 1 nt 16 (site position 5, T = 0); EMSA: 20 mM Tris pH 8, 50 mM NaCl, 5 mM MgCl2, 5% glycerol; 0.1 pmol TALE + 0.5 pmol duplex in 10 uL; RT 30 min then ice 30 min; gel 0.5x TAE 4 C; GFP readout.
Data set [7] has as its system TALE_9a_26 K262A (Xanthomonas axonopodis scaffold (designed TALE)). As to conditions: 5mC at strand 1 nt 16 (site position 5, T = 0); EMSA: 20 mM Tris pH 8, 50 mM NaCl, 5 mM MgCl2, 5% glycerol; 0.1 pmol TALE + 0.5 pmol duplex in 10 uL; RT 30 min then ice 30 min; gel 0.5x TAE 4 C; GFP readout.
The subject of data set [8] is TALE_9a_26 K171A/R173A (Xanthomonas axonopodis scaffold (designed TALE)). Conditions: 5mC at strand 1 nt 16 (site position 5, T = 0); EMSA: 20 mM Tris pH 8, 50 mM NaCl, 5 mM MgCl2, 5% glycerol; 0.1 pmol TALE + 0.5 pmol duplex in 10 uL; RT 30 min then ice 30 min; gel 0.5x TAE 4 C; GFP readout.

Regarding “CATCCATGAGTGAGAAACCCTGGCGGGGTGTGACATCCTCCCCCGG (double strand) [2c_26 5mC]”, the binding signal (fold C/5mC selectivity vs WT TALE) was determined as 2.5 in data set [1] and 1.1 in data set [2].
Regarding “GGCCAGCCAGTCAGCCGAAGGCTCCATGCTGCTCCCCGCCGCCGGC (double strand) [9a_26 5mC]”, the binding signal (fold C/5mC selectivity vs WT TALE) in data set [3] was found to be 7.2; in data set [4], 1.4; in data set [5] it was 5.7; in data set [6], 3; in data set [7] it was 3; in data set [8], 2.9.
